{"source": "patent US20160289684", "key": {"[1]": {"biological_target": "T1, GST fusion protein containing the NFAT2 phosphorylation site S324 flanked with 9-11 amino acids (UniProt O95644)", "T1 sequence": "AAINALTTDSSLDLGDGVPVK"}, "[2]": {"system": "T2, GST fusion protein carrying the SP2 motif of NFAT", "T2 sequence": "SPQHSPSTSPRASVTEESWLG"}, "[3]": {"biological_target": "T3, GST fusion protein containing the N-terminal regulatory domain (amino acids 1-319) of NFAT2 (UniProt O95644)", "T3 sequence": "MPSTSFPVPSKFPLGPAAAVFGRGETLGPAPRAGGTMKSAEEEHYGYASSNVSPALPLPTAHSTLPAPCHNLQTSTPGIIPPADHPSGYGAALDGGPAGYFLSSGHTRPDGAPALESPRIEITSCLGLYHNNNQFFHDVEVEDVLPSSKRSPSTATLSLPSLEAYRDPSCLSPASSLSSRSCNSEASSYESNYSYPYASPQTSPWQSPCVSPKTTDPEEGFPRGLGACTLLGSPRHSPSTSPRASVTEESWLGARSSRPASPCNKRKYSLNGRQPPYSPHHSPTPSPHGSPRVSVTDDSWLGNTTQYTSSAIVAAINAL"}, "[4]": {"system": "T4, GST fusion protein carrying the SP3 motif of NFAT", "T4 sequence": "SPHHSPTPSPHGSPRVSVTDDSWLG"}, "[5]": {"biological_target": "T5, GST fusion protein containing the NFAT2 phosphorylation site S161 flanked with 9-11 amino acids (UniProt O95644)", "T5 sequence": "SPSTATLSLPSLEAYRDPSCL"}, "[6]": {"biological_target": "T6, GST fusion protein containing the NFAT2 phosphorylation site S151 flanked with 9-11 amino acids (UniProt O95644)", "T6 sequence": "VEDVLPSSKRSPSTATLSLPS"}}, "data": [{"substance": "IKKε purified from 293T cells", "values": [{"measurement": "in vitro kinase assay", "setting": "[1]", "value": "peptides containing three serines, except the peptides containing S^117, were phosphorylated by IKKε in vitro"}, {"measurement": "in vitro kinase assay", "setting": "[2]", "value": "weakly the SP2 site"}, {"measurement": "in vitro kinase assay", "setting": "[3]", "value": "purified IKKε was sufficient to phosphorylate the N-terminal regulatory domain (amino acids 1-319) of NFAT2 by an in vitro kinase assay"}, {"measurement": "in vitro kinase assay", "setting": "[4]", "value": "IKKε efficiently phosphorylated the SP3 motif"}, {"measurement": "in vitro kinase assay", "setting": "[5]", "value": "peptides containing three serines, except the peptides containing S^117, were phosphorylated by IKKε in vitro"}, {"measurement": "in vitro kinase assay", "setting": "[6]", "value": "peptides containing three serines, except the peptides containing S^117, were phosphorylated by IKKε in vitro"}]}]}
